Results as given in article PMC3303795, “Incorporation of Noncanonical Amino Acids into Rosetta and Use in Computational Protein-Peptide Interface Design” (PLoS ONE, 2012).
Where two headings read alike, the source gives them in different places. Where a SMILES comes first, the peptide text is derived from it. [ ]: non-standard residue; d: D form. The star is where a group is joined. 5FAM = O=C1OC2(c3ccc(O)cc3Oc3cc(O)ccc32)c2ccc(C(=O)*)cc21; hSer = N[C@@H](CCO)C(=O)O; Nva = CCC[C@H](N)C(=O)O; Abu = CC[C@H](N)C(=O)O; βAla = NCCC(=O)O

Tests used:
porcine calpain-1 = target: T1, porcine calpain-1 (Sus scrofa, UniProt P04574); experiment: Fluorescence polarization binding assay of labelled calpastatin peptides with purified calpain; conditions: calpain titrated into 500 nM labelled peptide; 50 mM NaP, 50 mM NaCl, 5 mM BME, 1 mM CaCl2, 1 mM EDTA, pH 8.0; room temperature; 3 polarization readings averaged per concentration; single state binding model; read-out: Experimental KD
T1 construct: GST (N, cleaved yes); made in house; host or cells: E. coli (pET41b vector)
T1 sequence (P04574 94-266 limits assumed): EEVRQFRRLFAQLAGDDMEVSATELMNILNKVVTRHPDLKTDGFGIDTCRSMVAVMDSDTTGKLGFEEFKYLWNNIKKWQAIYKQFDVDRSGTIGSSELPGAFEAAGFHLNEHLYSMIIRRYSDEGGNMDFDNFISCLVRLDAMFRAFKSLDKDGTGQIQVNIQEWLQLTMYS
Description: Calpain was expressed as a GST-fusion protein in E. coli that had been transfected with a pet41b vector that contained the gene encoding porcine calpain-1. The cells were grown in Luria-Bertani broth with 50 ug/ml kanamycin at 37 degrees Celsius to an OD600 of 0.6 at which point 1 mM isopropyl β-D-1-thiogalactopyranoside (IPTG) was added to induce expression. Cells were grown for an additional 4 hours and harvested by centrifugation. Cells were resuspended in a buffer containing 50 mM NaPO4, 150 mM NaCl, 5 mM BME at pH 8.0 and lysed by sonication. Lysate was centrifuged at 12500 g for 30 minutes and the supernatant was run over a GSTrap-FF column that had been equilibrated with the lysis buffer. After loading, the column was washed with 10 column volumes of the lysis buffer before the GST-calpain was eluted with 50 mM Tris and 10 mM reduced glutithione, pH 8.0. The eluent was monitored by absorbance at 280 nm.5 mL fractions were collected. Those fractions which absorbed at 280 nm were pooled. Thrombin was added to separate the calpain from the GST and the cleavage reaction was allowed to cleave overnight at 4 Celsius. To remove the GST the protein was further purified with a Sephacryl S-200 gel filtration column using a buffer containing 50 mM NaPO4, 50 mM NaCl, 5 mM BME, 1 mM CaCl2, 1 mM EDTA at pH 8.0. The protein was concentrated through centrifugation via a spin column with a 15 K molecular weight cutoff and found to be pure and ran true to predicted size on SDS-PAGE gels.
Purified calpain was manually titrated in to a solution containing 500 nM calpastatin with 50 mM NaP, 50 mM NaCl, 5 mM BME, 1 mM CaCl2, 1 mM EDTA at pH 8.0, till the change in fluorescence polarization reached a plateau. Binding assays were performed at room temperature, 3 polarization readings were averaged for each concentration. Disassociation constants were calculated by fitting the data to a single state binding model using Sigma plot software.

[1] = target: T2, calpastatin peptide Asp609 to 1-methyl-histidine (5FAM–βALA–…(1MH)FTS-amide); experiment: fluorescence polarisation; purified calpain manually titrated into 500 nM labelled calpastatin peptide; 50 mM NaP, 50 mM NaCl, 5 mM BME, 1 mM CaCl2, 1 mM EDTA, pH 8.0; room temperature; single state binding model
T2 chain: PDDAIDALSDHFTS

[2] = target: T3, calpastatin peptide Ser607 to norvaline (5FAM–βALA–PDDAIDAL(NVL)DDFTS-amide); experiment: as above
T3 chain: PDDAIDALXDDFTS

[3] = target: T4, wild type calpastatin subdomain C peptide, FITC-labelled (FITC–βALA–…-amide); experiment: as above
T4 chain: PDDAIDALSDDFTS

[4] = target: T5, calpastatin peptide Phe610 to 4-methyl-phenylalanine (FITC–βALA–…(4MF)TS-amide); experiment: as above
T5 chain: PDDAIDALSDDFTS

[5] = target: T6, calpastatin peptide Asp609 to homoserine (5FAM–βALA–…(HSE)–FTS-amide); experiment: as above
T6 chain: PDDAIDALSDXFTS

[6] = target: T7, calpastatin peptide Ser607 to amino butyric acid (5FAM–βALA–PDDAIDAL(ABU)DDFTS-amide); experiment: as above
T7 chain: PDDAIDALXDDFTS

[7] = target: T8, wild type calpastatin subdomain C peptide, 5FAM-labelled (5FAM–βALA–…-amide); experiment: as above
T8 chain: PDDAIDALSDDFTS

[8] = target: T4, wild type calpastatin subdomain C …; experiment: as above

`CC[C@H](C)[C@H](NC(=O)[C@H](C)NC(=O)[C@H](CC(=O)O)NC(=O)[C@H](CC(=O)O)NC(=O)[C@@H]1CCCN1C(=O)CCNC(=O)c1ccc2c(c1)C(=O)OC21c2ccc(O)cc2Oc2cc(O)ccc21)C(=O)N[C@@H](CC(=O)O)C(=O)N[C@@H](C)C(=O)N[C@@H](CC(C)C)C(=O)N[C@@H](CO)C(=O)N[C@@H](CC(=O)O)C(=O)N[C@@H](CCO)C(=O)N[C@@H](Cc1ccccc1)C(=O)N[C@H](C(=O)N[C@@H](CO)C(N)=O)[C@@H](C)O` [HSE (5FAM)] ({5FAM-βAla}-PDDAIDALSD[hSer]FTS-NH2) showed a Kd (porcine calpain-1) of 7.48 ± 0.68 µM.

For `CCC[C@H](NC(=O)[C@H](CC(C)C)NC(=O)[C@H](C)NC(=O)[C@H](CC(=O)O)NC(=O)[C@@H](NC(=O)[C@H](C)NC(=O)[C@H](CC(=O)O)NC(=O)[C@H](CC(=O)O)NC(=O)[C@@H]1CCCN1C(=O)CCNC(=O)c1ccc2c(c1)C(=O)OC21c2ccc(O)cc2Oc2cc(O)ccc21)[C@@H](C)CC)C(=O)N[C@@H](CC(=O)O)C(=O)N[C@@H](CC(=O)O)C(=O)N[C@@H](Cc1ccccc1)C(=O)N[C@H](C(=O)N[C@@H](CO)C(N)=O)[C@@H](C)O` [NVL (5FAM)] ({5FAM-βAla}-PDDAIDAL[Nva]DDFTS-NH2), the Kd (porcine calpain-1) was 8.56 ± 0.95 µM.

Work on `CC[C@H](C)[C@H](NC(=O)[C@H](C)NC(=O)[C@H](CC(=O)O)NC(=O)[C@H](CC(=O)O)NC(=O)[C@@H]1CCCN1C(=O)CCNC(=O)c1ccc2c(c1)C(=O)OC21c2ccc(O)cc2Oc2cc(O)ccc21)C(=O)N[C@@H](CC(=O)O)C(=O)N[C@@H](C)C(=O)N[C@@H](CC(C)C)C(=O)N[C@@H](CO)C(=O)N[C@@H](CC(=O)O)C(=O)N[C@@H](CC(=O)O)C(=O)N[C@@H](Cc1ccccc1)C(=O)N[C@H](C(=O)N[C@@H](CO)C(N)=O)[C@@H](C)O` [WT (5FAM), reference compound] ({5FAM-βAla}-PDDAIDALSDDFTS-NH2) yielded a Kd (porcine calpain-1) of 6.6 ± 0.65 µM.

Work on `CC[C@H](NC(=O)[C@H](CC(C)C)NC(=O)[C@H](C)NC(=O)[C@H](CC(=O)O)NC(=O)[C@@H](NC(=O)[C@H](C)NC(=O)[C@H](CC(=O)O)NC(=O)[C@H](CC(=O)O)NC(=O)[C@@H]1CCCN1C(=O)CCNC(=O)c1ccc2c(c1)C(=O)OC21c2ccc(O)cc2Oc2cc(O)ccc21)[C@@H](C)CC)C(=O)N[C@@H](CC(=O)O)C(=O)N[C@@H](CC(=O)O)C(=O)N[C@@H](Cc1ccccc1)C(=O)N[C@H](C(=O)N[C@@H](CO)C(N)=O)[C@@H](C)O` [ABU (5FAM)] ({5FAM-βAla}-PDDAIDAL[Abu]DDFTS-NH2) yielded a Kd (porcine calpain-1) of 5.8 ± 1.2 µM.

B1: porcine calpain-1 (enzyme)
chain: EEVRQFRRLFAQLAGDDMEVSATELMNILNKVVTRHPDLKTDGFGIDTCRSMVAVMDSDTTGKLGFEEFKYLWNNIKKWQAIYKQFDVDRSGTIGSSELPGAFEAAGFHLNEHLYSMIIRRYSDEGGNMDFDNFISCLVRLDAMFRAFKSLDKDGTGQIQVNIQEWLQLTMYS
modifications: not checked
B1 showed a Kd [1] of 5.81 µM, a Kd [2] of 8.56 µM and a Kd [3] of 5.77 µM. The Kd [4] was 2.6 µM, the Kd [5] was 7.48 µM and the Kd [6] was 5.8 µM. The Kd [7] was 6.6 µM and the Kd [8] was 5800 µM.
